According to paper PMC11808261:

Substrate: N[C@@H](CC(=O)O)C(=O)O
Experiment: purified protein
Settings: 37 °C, 5 min, PBS pH 7.0 (pH of the activity assay), pyruvoyl-dependent
[1] = variant N3, I126* = C-terminal deletion from residue 126
[2] = variant Y1, I126* = C-terminal deletion from residue 126

B1: BsADC (L-aspartate-alpha-decarboxylase, panD-wt) (Bacillus subtilis subsp. subtilis str. 168; A99E/DEL126-127/I88M/K113R/K63N/S7N) (protein)
chain 1: MYRTMMNGKLHRATVTEANLNYVG
chain 2: SITIDEDLIDAVGMLPNEKVQIVNNNNGARLETYIIPGNRGSGVICLNGAAARLVQEGDKVIIMSYKMMSDQEAESHEPKVAVLNDQNRIEQMLGNEPART
Which Km [1] does the source give for B1 here?
Its Km is 3.22 ± 0.15 mM.

What about the kcat [1] of the same protein?
The kcat was 8.29 s⁻¹.

And the kcat/Km [1]?
The kcat/Km was 2570 M⁻¹ s⁻¹.

B2: BsADC (L-aspartate-alpha-decarboxylase, panD-wt) (Bacillus subtilis subsp. subtilis str. 168; A99E/DEL126-127/I88M/K113R/K63N/S7Y) (protein)
chain 1: MYRTMMYGKLHRATVTEANLNYVG
chain 2: B1 chain 2
With B2 as the protein, how does the Km [2] read?
Its Km is 3.82 ± 0.29 mM.

What about the kcat [2] of the same protein?
Its kcat is 7.26 s⁻¹.

And the kcat/Km [2]?
The kcat/Km was 1900 M⁻¹ s⁻¹.

B3: BsADC (L-aspartate-alpha-decarboxylase, panD-wt) (Bacillus subtilis subsp. subtilis str. 168) (protein)
chain 1: MYRTMMSGKLHRATVTEANLNYVG
chain 2: SITIDEDLIDAVGMLPNEKVQIVNNNNGARLETYIIPGKRGSGVICLNGAAARLVQEGDKVIIISYKMMSDQEAASHEPKVAVLNDQNKIEQMLGNEPARTIL
For B3, which Km is on record?
The Km was 3.69 ± 0.33 mM.

And the kcat?
The kcat was 4.25 s⁻¹.

What about the kcat/Km of the same protein?
The kcat/Km was 1150 M⁻¹ s⁻¹.
